Test: soluble on expression in E. coli; label from the status in PepcDB or PDB records

**Q.** For “MEKIVYEQLKETLYYEKLPNGLDVYILPKQGFNKTFATSTTKYGSVDNTFVPLGKEEMIRVPDGIAHFLEHKLFEKEDHDAFQLFSKQGASANAFTSFTRTAYLFSCTSNVEQNLNTLLNFVQEPYFSEKTVEKEKGIIGQEIQMYQDNPDWRLYFGLIDSLFVKHPIKIDIAGTIESISKITKDLLYECYETFYHPSNMLMFVVGAIDPEKTMDLVHENQAKKDYKNQPEIVRSFEEEPDEVNEKKKIISMPVQTPKCLVGIKATNLKEKGEALLKQEIALTLLLDYLFGKSSVHYESLYNEGLIDDTFSYDYTEENNFGFAMVGGDTKQPDELEERLKSILLNTNYNQLDEAALERVKKKKIGGFLRSLNSPEYIANQFTRYAFNESSLFDALTVLESLTVQDLQEVAQLLLSEEKMSVCQVLPKK”, which “soluble on expression in E. coli” value is on record?
**A.** The value was “not soluble”.

**Q.** For “MEKKHIYLFCSAGMSTSLLVSKMRAQAEKYEVPVIIEAFPETLAGEKGQNADVVLLGPQIAYMLPEIQRLLPNKPVEVIDSLLYGKVDGLGVLKAAVAAIKKAAAN”, which “soluble on expression in E. coli” value is on record?
**A.** Its value is “soluble”.

**Q.** Which “soluble on expression in E. coli” value does the source give for “MEKKTIVLGVIGSDCHAVGNKILDHAFTNAGFNVVNIGVLSPQEVFIKAAIETKADAILLSSLYGQGEIDCKGLRQKCDEAGLEGILLYVGGNIVVGKQHWPDVEKRFKDMGYDRVYAPGTPPEVGIADLKKDLNIE” here?
**A.** The value was “soluble”.

**Q.** Which “soluble on expression in E. coli” value does the source give for “MEKKVQIAVYENENFKRVAEIVKKKSIATVCEEALCPNIMECWGSGTATFMIMGSICTRGCRFCYVLKGKPSPLDDEEPKRVAEAVKEMELDYVVITSVDRDDLSDGGAQHFANVVKTVKELNPGIIVEVLTPDFRGNIDAVKKVIDAGVDVFAHNVETVRRLTPIVRDPRASYEQSLNVLKYAENVIKKSSILLGLGETWDEIVETMRDLRSVGVSILVLSQYMRPSRKQLEVKKRYTLEEFKELEEIAYSMGFSAVISLPLARTSYKAKEAYFRAIENAKNHS” here?
**A.** The value was “not soluble”.

**Q.** For “MEKLGLEHVCGDLNTEVEHGFTCDLLSEVLGKAQPSTLWITVQSHVNIIAVATVVGIKGIVLCDGHEYEKDTVKKAEENGVVLLKSQENSFIVSGKVYELGLRLEHHHHHH”, which “soluble on expression in E. coli” value is on record?
**A.** The value was “not soluble”.

**Q.** For “MEKNEKNGVFSRVRSRWRSIFSKKANPVKLRDCNRLTFERILSDPNEQIGTIVAQATVEPITLPNGGGIALIQETTLYEEDYGLEDSSNFPIISETAQSLRRRMRRLSSGDLNVIRRMTEEIDFDLKNIIYDGNEITGETDADNGNDRACFKPGPDYPIDQQMLFLKQCIKKIDTRPPNMYYLTNGWSVDNFEALFKYMIRSGEDCSRDTLLRVEFRDCVVSLKSLYDFIEEYATFKGVKMHSDYVYAIVHSRNEKLERRLRGAIDSFMEIESKIRQARISYVSSFTINSPHTPNVSIIVKFCCLKPCNSDAKTKMRQISVQVDHVTGRSRMSLPDVRQHEGLVCECLGDFSLIRHRPTSVPVTKILDEHPPLIVDEEVRLKSSYQFNPVTGEPIPDDEQQQEQTEIEVNKKIKKPKIVPNQTLLGNEHDIFPRFSIFIGFYKASIEDPLEINDFVEMFPLILVLLEKAGIQELEDGDAPEKSVSKYPKKRSIVDGASSETCEDTQSVGSSESSEPRSPEFTEYSESEDTAADSETSDSESSSEDEKENMKSSIKELELIKDAPEDL”, which “soluble on expression in E. coli” value is on record?
**A.** The value was “soluble”.

**Q.** For “MEKNGYIDPYTTVMNYLSITPGKWEIKYNENIRGISGKEHRFDAVYRSQEGEIVTVMVVLRTEDLEKRLDDFKNGSKDVRAKRKFLIVCGEINSDMVSELKSENISILMLPGMFCSQVSSYNADAGSNDAPRSLPDGGIEESQRKRSRANIIMDLIRAINENSNQIPVTRLFYACNINHRMGRSIIEDLEHAGIVILRKTGPNRNVVELTRKGISLINDYEFIREILEK”, which “soluble on expression in E. coli” value is on record?
**A.** Its value is “not soluble”.

**Q.** With “MEKQNIAVILARQNSKGLPLKNLRKMNGISLLGHTINAAISSKCFDRIIVSTDGGLIAEEAKNFGVEVVLRPAELASDTASSISGVIHALETIGSNSGTVTLLQPTSPLRTGAHIREAFSLFDEKIKGSVVSACPMEHHPLKTLLQINNGEYAPMRHLSDLEQPRQQLPQAFRPNGAIYINDTASLIANNCFFIAPTKLYIMSHQDSIDIDTELDLQQAENILNHKES” as the sequence, how does the “soluble on expression in E. coli” value read?
**A.** The value was “soluble”.

**Q.** With “MEKSGGRIVMDEIRSFEKAHLFDLGHPLLNRIADSFVKAAGVSFDSNNVGPPSEITGNKKHRFPNLRGESSKSLDALVKNTGKESLQWGLAAGLYSGITYGMTEVRGGAHDWRNSAVAGALTGAAMAMTTSERTSHEQVVQSALTGAAISTAANLLSSVF” as the sequence, how does the “soluble on expression in E. coli” value read?
**A.** The value was “soluble”.

**Q.** Which “soluble on expression in E. coli” value does the source give for “MEKVAFIGLGAMGYPMAGHLARRFPTLVWNRTFEKALRHQEEFGSEAVPLERVAEARVIFTCLPTTREVYEVAEALYPYLREGTYWVDATSGEPEASRRLAERLREKGVTYLDAPVSGGTSGAEAGTLTVMLGGPEEAVERVRPFLAYAKKVVHVGPVGAGHAVKAINNALLAVNLWAAGEGLLALVKQGVSAEKALEVINASSGRSNATENLIPQRVLTRAFPKTFALGLLVKDLGIAMGVLDGEKAPSPLLRLAREVYEMAKRELGPDADHVEALRLLERWGGVEIR” here?
**A.** Its value is “soluble”.

**Q.** Which “soluble on expression in E. coli” value does the source give for “MELATTQSVLMQIQPTIQRFARMLASVLQLEVEIVDENLCRVAGTGAYGKFLGRQLSGNSRLLRHVLETKTEKVVTQSRFDPLCEGCDSKENCREKAFLGTPVILQDRCVGVISLIAVTHEQQEHISDNLREFSDYVRHISTIFVSKLLEDQGPGDNISKIFATMIDNMDQGVLVVDDENRVQFVNQTALKTLGVVQNNIIGKPIRFRPLTFESNFTHGHMQHIVSWDDKSELIIGQLHNIQGRQLFLMAFHQSHTSFSVANAPDEPHIEQLVGECRVMRQLKRLISRIAPSPSSVMVVGESGTGKEVVARAIHKLSGRRNKPFIAINCAAIPEQLLESELFGYVKGAFTGASANGKTGLIQAANTGTLFLDEIGDMPLMLQAKLLRAIEAREILPIGASSPIQVDIRIISATNQNLAQFIAEGKFREDLFYRLNVIPITLPPLRERQEDIELLVHYFLHLHTRRLGSVYPGIAPDVVEILRKHRWPGNLRELSNLMEYLVNVVPSGEVIDSTLLPPNLLNNGTTEQSDVTEVSEAHLSLDDAGGTALEEMEKQMIREALSRHNSKKQVADELGIGIATLYRKIKKYELLNT” here?
**A.** The value was “not soluble”.

**Q.** With “MELFTFIPYFLLLEREESDRNTLANANTEFIREVYELQRVEKDVTLVFFQLQYLSCKLVILREHYRTAQKEHLPCYAYIIGTLEYLKGLLDRCRFIHKCGSAIAPACLPTTEGDPPVCWTAEVICLMELLYACHELKMFNGGEVTLGRVVEYVCHVLGVNVKNASSYYARMRRRKAGDRTYFIDRLREVLLKRMEDDDEGHRRRNR” as the sequence, how does the “soluble on expression in E. coli” value read?
**A.** Its value is “not soluble”.

**Q.** For “MELKILVTGGNVFVPGRLNAHFSTVVYLEHKDRRIIIDPGNLSSMDELEEKFSELGISPDDITDVLFTHVHLDHIFNSVLFENATFYVHEVYKTKNYLSFGTIVGRIYSKVISSWKNVVLLKGEESLFDEKVKVFHTPWHAREHLSFLLDTENAGRVLITGDITPNRLSYYDIIKGYGSVQVKNFLDRVGRIDLLVFPHDAPLKPEVKK”, which “soluble on expression in E. coli” value is on record?
**A.** The value was “not soluble”.

**Q.** Which “soluble on expression in E. coli” value does the source give for “MELNMLYLFTASNDSAIKNLEATIEKIYPISTCLADLDADTVTKLKDNELHENVCMWGATPGSSNVDRWEKLKEGDRILAYSKGEFKFFGTIFAKTHNPDVARKI” here?
**A.** The value was “not soluble”.

**Q.** With “MELPILPTSVIGSYPKPRWLLRMYRLRDLGKIPEEDFKEAVKDASVSVLREHERAGVDIPWDGEMWRTEMTEHFTAKIGGFKFYGPVRVWGNAYFNKAAAVDKLEYKEPLVLEEFLWVKKNTTREVVKIPITGPYTIAEWSFNEYYPDKESFIMDLAKIINKELKMLENHGALYIQLDEPAMLNHPDEVPLAVEAINKAVKGIKIKVGLHVCYSNYYLLADYFDEIRVTQFALEFANRQFRDMDFLKKLSNKELGFGVVDVHNPRIESVEEIVKAIKKVFEYVEPELLYINPDCGMKLLDRNIAYNKLVNMVKATELVRKELEREGKKTTEFRTLKDILEHHHHHH” as the sequence, how does the “soluble on expression in E. coli” value read?
**A.** The value was “not soluble”.

**Q.** For “MELQKALKEVREQKIAPVYLLIGTELYLTELFKTTLMKELLTEEDDQFNFFSFDMEETPLSAAIAEAETIPFFGDYRLVFVENPYFLTAERKTNGVEHDVNLLLNYLESPSPTTVLVFMASYEKLDERKKITKALKKNATVVDVNPMDEKAIRQYISQTIESEGYTIRSDAFDLLLQLTDLNLSKIMGELQKLYLYALETKTITRGAVQELVPKSLEHNVFDLTNEVLSGNSEKAVQLYEDLLLQGEETIKLNAILLNQIRLFLQTKILAKMGYQQANIADTLKVHPYRVKLALQQVRRFELSRLERLYDELVENDYRMKTGQMDKELLFQLFILKLTAQAK”, which “soluble on expression in E. coli” value is on record?
**A.** Its value is “not soluble”.

**Q.** For “MELSALTAVSPVDGRYGSKTIALREIFSEYGLLKYRTIVEIRWLQKLAATAEIAEVPAFSAEANQFLDDLAANFSEADALRIKEIERTTNHDVKAVEYFLKEKVADVPELHAVNEFFHFACTSEDINNTSHALMLKEARETVILPEIRNLIDAIKALAVEYRDIPLLSRTHGQPASPSTMGKEMANVAYRMERQYKQIENVEILAKINGAVGNYNAHLSAYPELDWHKFSEEFITESLGVTWNPYTTQIEPHDYIAELFDAVARFNTILIDFDRDVWGYIALGHFKQKTIAGEIGSSTMPHKVNPIDFENSEGNLGLANAVFGHLAQKLPISRWQRDLTDSTVLRNLGVGVGYAIIAYTSTLKGISKLEVNRDALLAELDKNWEVLAEPVQTVMRRYGIEKPYEKLKELTRGKRVDGEAMRNFIDGLELPEHEKARLKEMTPANYIGQAIELTDKL”, which “soluble on expression in E. coli” value is on record?
**A.** The value was “not soluble”.

**Q.** With “MELTVKDIQTWLDNYSKVIEEKKDYLSELDTPIGDGDHGNNMARGMAEYKIAFDKKVPTTITETFKVLSMALISKVGGASGPLYGTAFMNMTKATKDLETISSPEQLKEIVQQGLAGIQMRGKAEPGDKTMVDVWAPVAEVIGTEQFNEEKIEQFAEATKDWVAKKGRASYLGERAIGHIDPGAASSALLFEELVKVINQ” as the sequence, how does the “soluble on expression in E. coli” value read?
**A.** The value was “not soluble”.

**Q.** With “MELVSVAALAENRVIGRDGELPWPSIPADKKQYRSRVADDPVVLGRTTFESMRDDLPGSAQIVMSRSERSFSVDTAHRAASVEEAVDIAASLDAETAYVIGGAAIYALFQPHLDRMVLSRVPGEYEGDTYYPEWDAAEWELDAETDHEGFTLQEWVRSASSR” as the sequence, how does the “soluble on expression in E. coli” value read?
**A.** The value was “soluble”.

**Q.** With “MELYETSPYFYQEPRFYDGENYLPVHLQGFEPPGYERTELTLSPEAPGPLEDKGLGTPEHCPGQCLPWACKVCKRKSVSVDRRRAATLREKRRLKKVNEAFEALKRSTLLNPNQRLPKVEILRSAIQYIERLQALLSSLNQEERDLRYRGGGGPQPGVPSECSSHSASCSPEWGSALEFSANPGDHLLTADPTDAHNLHSLTSIVDSITVEDVSVAFPDETMPN” as the sequence, how does the “soluble on expression in E. coli” value read?
**A.** The value was “soluble”.

**Q.** Which “soluble on expression in E. coli” value does the source give for “MEMGMKRIANECFFAWVESEIKSGRSVKFRVKGNSMMPLLRNGKDEVVVGPYDKEELKLFDVILFRQTDRYVLHRIIQKRDSRYLMQGDGVCRFYEECEDTDIIGVVRKVCRPSGKKIETDSMCWRLESRLWLGLGGCRGMVLRVLNRLGCCLLF” here?
**A.** The value was “not soluble”.

**Q.** For “MEMTMEQEPLNGWPQPYRLLDAQPYWDALQDEKLTYQQCVACRQSVWPAHSRCPHCSSDQLVWQASSGRATVYSFSTVTRGPTPVWASIVPYTVGFVEMDEGYFLFTQIEGPPGSIGVGDKVQVRFVRRGAQILPVFVSADLPA”, which “soluble on expression in E. coli” value is on record?
**A.** The value was “not soluble”.

**Q.** Which “soluble on expression in E. coli” value does the source give for “MEMTNAQRLILSNQYKMMTMLDPTNAERYRRLQTIIERGYGLQMRELDREFGELTEETCRTIIDIMEMYHALHVSWTNLKDTQAIDERRVTFLGFDAATEARYLGYVRFMVNIEGRYTHFDAGTHGFNAQTPMWEKYQRMLNVWHACPRQYHLSANEINQIINA” here?
**A.** The value was “not soluble”.

From the DeepSol protein solubility set
